The values that follow come from article PMC8326117 (International Journal of Biological Sciences, 2021).

In this test the target is SARS-CoV-2 S-protein RBD (SARS-CoV-2, UniProt P0DTC2). Kind of test: SPR. To be noted: both partners purified.

B1: S-protein neutralizing peptide AYn1 (peptide)
peptide: KKKKKKDKFNHEAEDLFY
notes: also called 6K-modified AYn1 peptide
B1 showed a Kd of 95.6 nM.

In general, Kd refers to the free concentration of one partner at which half of the binding sites on the other are occupied at equilibrium, for simple one-to-one binding. Lower therefore signals tighter binding.
